Measured values as given in patent publication US20220211798A1, “THERAPY GUIDANCE AND/OR THERAPY MONITORING FOR A TREATMENT WITH ANGIOTENSIN-RECEPTOR-AGONIST AND/OR A PRECURSOR THEREOF” (4TEEN4 PHARMACEUTICALS GMBH, priority 2018, published 2022).
“Also recorded” adds a separate entry of the source.

Experiments:
[1] = system: Patients with vasodilatory shock; details: vasodilatory shock (80% in septic shock); cited from earlier work
[2] = system: healthy Black 6 mice injected with DPP3; experiment: Effect of Valsartan in healthy mice injected with DPP3; format: in vivo
Experimental: The effect of an antagonist for the type I angiotensin II receptor (ATR1), Valsartan, in healthy mice injected with DPP3 was studied by monitoring the shortening fraction. In this experiment, healthy Black 6 mice (8-12 weeks, group size refer to table 8) consumed water with 50 mg/kg Valsartan per day or just water (Table 8) for a period of two weeks. Subsequently, both groups received an intravenous injection of native DPP3 (600 μg/kg) and the shortening fraction was assessed according to Gao et al., 2011 at 15, 60 and 120 minutes (FIG. 12).

Wild type Black 6 mice = experiment: Effect of native DPP3 injection in healthy mice; format: in vivo; details: 600 μg/kg intravenously, compared to PBS control
Experimental: The effect of native hDPP3 injection in healthy mice was studied by monitoring the shortening fraction and renal resistive index.
Wild type Black 6 mice (8-12 weeks, group size refer to table 3) were acclimated during 2 weeks and a baseline echocardiography was done. The mice were randomly allocated to one of the two groups and, subsequently, native DPP3 protein or PBS were injected intravenously via a retro-orbital injection with a dose of 600 μg/kg for DPP3 protein.
After DPP3 or PBS injection, cardiac function was assessed by echocardiography (Gao et al. 2011) and renal function assessed by renal resistive index (Lubas et al., 2014, Dewitte et al, 2012) at 15, 60 and 120 minutes (FIG. 3).

normotensive mice = details: cited from earlier work
[3] = system: AngII-infused hypertensive mice; details: cited from earlier work

## Asp-Arg-Val-Tyr-Ile-His-Pro-Phe (DRVYIHPF; listed as Homo sapiens) [angiotensin II]
[1]
  hypotension: significant correction of hypotension
  survival to 28 days: more likely to survive to 28 days

## CCCCC(=O)N(Cc1ccc(-c2ccccc2-c2nnn[nH]2)cc1)[C@H](C(=O)O)C(C)C [Valsartan]
[2]; 50 mg/kg Valsartan per day in water for two weeks, then native DPP3 600 μg/kg intravenous
  shortening fraction after DPP3 injection: rescued; also recorded: no signs of heart dysfunction

B1: native DPP3: native human Dipeptidyl peptidase 3 purified from human erythrocyte lysate (protein)
chain: ADTQYILPNDIGVSSLDCREAFRLLSPTERLYAYHLSRAAWYGGLAVLLQTSPEAPYIYALLSRLFRAQDPDQLRQHALAEGLTEEEYQAFLVYAAGVYSNMGNYKSFGDTKFVPNLPKEKLERVILGSEAAQQHPEEVRGLWQTCGELMFSLEPRLRHLGLGKEGITTYFSGNCTMEDAKLAQDFLDSQNLSAYNTRLFKEVDGEGKPYYEVRLASVLGSEPSLDSEVTSKLKSYEFRGSPFQVTRGDYAPILQKVVEQLEKAKAYAANSHQGQMLAQYIESFTQGSIEAHKRGSRFWIQDKGPIVESYIGFIESYRDPFGSRGEFEGFVAVVNKAMSAKFERLVASAEQLLKELPWPPTFEKDKFLTPDFTSLDVLTFAGSGIPAGINIPNYDDLRQTEGFKNVSLGNVLAVAYATQREKLTFLEEDDKDLYILWKGPSFDVQVGLHELLGHGSGKLFVQDEKGAFNFDQETVINPETGEQIQSWYRSGETWDSKFSTIASSYEECRAESVGLYLCLHPQVLEIFGFEGADAEDVIYVNWLNMVRAGLLALEFYTPEAFNWRQAHMQARFVILRVLLEAGEGLVTITPTTGSDGRPDARVRLDRSKIRSVGKPALERFLRRLQVLKSTGDVAGGRALYEGYATVTDAPPECFLTLRDTVLLRKESRKLIVQPNTRLEGSDVQLLEYEASAAGLIRSFSERFPEDGPELEEILTQLATADARFWKGPSEAPSGQA
Wild type Black 6 mice
  renal resistive index (renal function): renal resistive index increase
  shortening fraction: significantly reduced shortening fraction
Wild type Black 6 mice; listed as DPP3
  renal resistive index (renal function): increased renal resistive index
  shortening fraction: shortening fraction reduction
Normotensive mice
  blood pressure: no alteration in blood pressure
[2]; native DPP3 600 μg/kg intravenous, mice on water without Valsartan
  shortening fraction: significant decrease in the shortening fraction
[3]
  blood pressure: reduced blood pressure
  heart rate: without changing heart rate
